Measured values as given in patent publication US20240117018A1.

Experiments:
Assay in all cases: cell-based or functional assay
[1] = target: Env of HIV-1 pseudovirus 9004SS_A3_4 (HIV-1)
[2] = target: Env of HIV-1 pseudovirus Q769.d22 (HIV-1)
[3] = target: Env of HIV-1 pseudovirus HIV-16055-2.3 (HIV-1)
[4] = target: Env of HIV-1 pseudovirus 6535.3 (HIV-1)
[5] = target: Env of HIV-1 pseudovirus ZM109F.PB4 (HIV-1)
[6] = target: Env of HIV-1 pseudovirus CNE58 (HIV-1)
[7] = target: Env of HIV-1 pseudovirus Q842.d12 (HIV-1)
[8] = target: Env of HIV-1 pseudovirus ZM53M.PB12 (HIV-1)
[9] = target: Env of HIV-1 pseudovirus CNE20 (HIV-1)
[10] = target: Env of HIV-1 pseudovirus 928-28 (HIV-1)
[11] = target: Env of HIV-1 pseudovirus 1006_11_C3_1601 (HIV-1)
[12] = target: Env of HIV-1 pseudovirus WITO4160.33 (HIV-1)
[13] = target: Env of HIV-1 pseudovirus 1056_10_TA11_1826 (HIV-1)
[14] = target: Env of HIV-1 pseudovirus CAP210.2.00.E8 (HIV-1)
[15] = target: HIV-1 Env pseudovirus ZM247v1(Rev-) (HIV-1)
[16] = target: HIV-1 Env pseudovirus Ce2010_F5 (HIV-1)
[17] = target: HIV-1 Env pseudovirus 62357_14_D3_4589 (HIV-1)
[18] = target: HIV-1 Env pseudovirus WITO4160.33 (HIV-1)
[19] = target: HIV-1 Env pseudovirus Ce704809221_1B3 (HIV-1)
[20] = target: HIV-1 Env pseudovirus 7030102001E5(Rev-) (HIV-1)
[21] = target: HIV-1 Env pseudovirus Q23.17 (HIV-1)
[22] = target: HIV-1 Env pseudovirus CAAN5342.A2 (HIV-1)
[23] = target: HIV-1 Env pseudovirus 1056_10_TA11_1826 (HIV-1)
[24] = target: HIV-1 Env pseudovirus ZM214M.PL15 (HIV-1)
[25] = target: HIV-1 Env pseudovirus CNE19 (HIV-1)
[26] = target: HIV-1 Env pseudovirus Ce2060_G9 (HIV-1)
[27] = target: HIV-1 Env pseudovirus HIV-001428-2.42 (HIV-1)
[28] = target: HIV-1 Env pseudovirus Ce1172_H1 (HIV-1)
[29] = target: HIV-1 Env pseudovirus 1006_11_C3_1601 (HIV-1)
[30] = target: HIV-1 Env pseudovirus ZM109F.PB4 (HIV-1)

10-1074 (antibody) gave an IC50 [1] of 0.011 µg/mL, an IC80 [1] of 0.03 µg/mL and an IC50 [2] of over 50 µg/mL. For the same substance, the IC80 [2] was over 50 µg/mL, the IC50 [3] was over 50 µg/mL and the IC80 [3] was over 50 µg/mL. It also gave an IC50 [4] of 0.014 µg/mL, an IC80 [4] of 0.026 µg/mL and an IC50 [5] of over 50 µg/mL. The IC80 [5] was over 50 µg/mL, the IC50 [6] was 0.267 µg/mL and the IC80 [6] was 0.968 µg/mL. For the same substance, the IC50 [7] was over 50 µg/mL, the IC80 [7] was over 50 µg/mL and the IC50 [8] was over 50 µg/mL. It also gave an IC80 [8] of over 50 µg/mL, an IC50 [9] of under 0.001 µg/mL and an IC80 [9] of 0.005 µg/mL. It also gave an IC50 [10] of 0.847 µg/mL, an IC80 [10] of 4.7 µg/mL and an IC50 [11] of 0.003 µg/mL. It also gave an IC80 [11] of 0.013 µg/mL, an IC50 [12] of 0.185 µg/mL and an IC80 [12] of 2.11 µg/mL. For the same substance, the IC50 [13] was 0.038 µg/mL, the IC80 [13] was 0.272 µg/mL and the IC50 [14] was over 50 µg/mL. It also gave an IC80 [14] of over 50 µg/mL.

Substance PG16 (antibody) has an IC50 [1] of 0.02 µg/mL, an IC80 [1] of 0.111 µg/mL and an IC50 [2] of 0.005 µg/mL. It also gave an IC80 [2] of 0.018 µg/mL, an IC50 [3] of 0.17 µg/mL and an IC80 [3] of over 0.25 µg/mL. It also gave an IC50 [4] of 0.653 µg/mL, an IC80 [4] of over 50 µg/mL and an IC50 [5] of 7.03 µg/mL. It also gave an IC80 [5] of over 50 µg/mL, an IC50 [6] of 0.044 µg/mL and an IC80 [6] of 0.25 µg/mL. The IC50 [7] was 0.032 µg/mL, the IC80 [7] was over 0.25 µg/mL and the IC50 [8] was 0.007 µg/mL. The IC80 [8] was 0.051 µg/mL, the IC50 [9] was 3.63 µg/mL and the IC80 [9] was 47.2 µg/mL. For the same substance, the IC50 [10] was 0.034 µg/mL, the IC80 [10] was 0.237 µg/mL and the IC50 [11] was over 50 µg/mL. It also gave an IC80 [11] of over 50 µg/mL, an IC50 [12] of 0.002 µg/mL and an IC80 [12] of 0.012 µg/mL. It also gave an IC50 [13] of 0.315 µg/mL, an IC80 [13] of 1.95 µg/mL and an IC50 [14] of 0.01 µg/mL. The IC80 [14] was 0.042 µg/mL.

For N49P7.2 (antibody), the IC50 [15] was 0.177 µg/mL, the IC80 [15] was 2.5 µg/mL and the MPI [15] was 96. For the same substance, the IC50 [16] was 0.398 µg/mL, the IC80 [16] was 1.29 µg/mL and the MPI [16] was 100. It also gave an IC50 [17] of 0.03 µg/mL, an IC80 [17] of 0.121 µg/mL and an MPI [17] of 100. It also gave an IC50 [18] of 0.051 µg/mL, an IC80 [18] of 0.215 µg/mL and an MPI [18] of 100. For the same substance, the IC50 [19] was 0.874 µg/mL, the IC80 [19] was 3.88 µg/mL and the MPI [19] was 100. The IC50 [20] was 0.313 µg/mL, the IC80 [20] was 1.03 µg/mL and the MPI [20] was 100. The IC50 [21] was 0.051 µg/mL, the IC80 [21] was 0.2 µg/mL and the MPI [21] was 100. For the same substance, the IC50 [22] was 0.809 µg/mL, the IC80 [22] was 2.81 µg/mL and the MPI [22] was 100. It also gave an IC50 [23] of 0.114 µg/mL, an IC80 [23] of 0.771 µg/mL and an MPI [23] of 100. For the same substance, the IC50 [24] was 0.559 µg/mL, the IC80 [24] was 4.53 µg/mL and the MPI [24] was 100. The IC50 [25] was 0.033 µg/mL, the IC80 [25] was 0.129 µg/mL and the MPI [25] was 100. For the same substance, the IC50 [26] was 0.821 µg/mL, the IC80 [26] was 2.81 µg/mL and the MPI [26] was 100. It also gave an IC50 [27] of 0.01 µg/mL, an IC80 [27] of 0.036 µg/mL and an MPI [27] of 100. The IC50 [28] was over 50 µg/mL, the IC80 [28] was over 50 µg/mL and the MPI [28] was 6. The IC50 [29] was 0.085 µg/mL, the IC80 [29] was 0.237 µg/mL and the MPI [29] was 100. For the same substance, the IC50 [30] was 0.065 µg/mL, the IC80 [30] was 0.321 µg/mL and the MPI [30] was 99.

In the case of N49P18.1 (antibody), the IC50 [15] is reported as 10.9 µg/mL, the IC80 [15] is reported as over 50 µg/mL and the MPI [15] is reported as 79. It also gave an IC50 [16] of 29 µg/mL, an IC80 [16] of over 50 µg/mL and an MPI [16] of 68. It also gave an IC50 [17] of 10.4 µg/mL, an IC80 [17] of 48 µg/mL and an MPI [17] of 82. For the same substance, the IC50 [18] was 11 µg/mL, the IC80 [18] was 37.6 µg/mL and the MPI [18] was 87. The IC50 [19] was 41.6 µg/mL, the IC80 [19] was over 50 µg/mL and the MPI [19] was 59. For the same substance, the IC50 [20] was 6.35 µg/mL, the IC80 [20] was 17.7 µg/mL and the MPI [20] was 98. The IC50 [21] was 1.16 µg/mL, the IC80 [21] was 6.93 µg/mL and the MPI [21] was 100. The IC50 [22] was 16.1 µg/mL, the IC80 [22] was 49.1 µg/mL and the MPI [22] was 83. It also gave an IC50 [23] of 30.5 µg/mL, an IC80 [23] of over 50 µg/mL and an MPI [23] of 62. The IC50 [24] was over 50 µg/mL, the IC80 [24] was over 50 µg/mL and the MPI [24] was 20. The IC50 [25] was 2.34 µg/mL, the IC80 [25] was 9.64 µg/mL and the MPI [25] was 99. The IC50 [26] was over 50 µg/mL, the IC80 [26] was over 50 µg/mL and the MPI [26] was 37. It also gave an IC50 [27] of 1.13 µg/mL, an IC80 [27] of 8.31 µg/mL and an MPI [27] of 100. It also gave an IC50 [28] of 46.4 µg/mL, an IC80 [28] of over 50 µg/mL and an MPI [28] of 52. It also gave an IC50 [29] of 2.8 µg/mL, an IC80 [29] of 9.66 µg/mL and an MPI [29] of 99. For the same substance, the IC50 [30] was 26.6 µg/mL, the IC80 [30] was over 50 µg/mL and the MPI [30] was 69.
